These results are taken from article PMC2989460.

This test concerns the target anaphase-promoting complex/cyclosome (APC/C), human (human (endogenous in HeLa)) (UniProt Q9H1A4). The test can be described thus: cryo-EM structure.
Sequence of UniProt Q9H1A4 (Q9H1A4 whole entry, looked up, one chain of several): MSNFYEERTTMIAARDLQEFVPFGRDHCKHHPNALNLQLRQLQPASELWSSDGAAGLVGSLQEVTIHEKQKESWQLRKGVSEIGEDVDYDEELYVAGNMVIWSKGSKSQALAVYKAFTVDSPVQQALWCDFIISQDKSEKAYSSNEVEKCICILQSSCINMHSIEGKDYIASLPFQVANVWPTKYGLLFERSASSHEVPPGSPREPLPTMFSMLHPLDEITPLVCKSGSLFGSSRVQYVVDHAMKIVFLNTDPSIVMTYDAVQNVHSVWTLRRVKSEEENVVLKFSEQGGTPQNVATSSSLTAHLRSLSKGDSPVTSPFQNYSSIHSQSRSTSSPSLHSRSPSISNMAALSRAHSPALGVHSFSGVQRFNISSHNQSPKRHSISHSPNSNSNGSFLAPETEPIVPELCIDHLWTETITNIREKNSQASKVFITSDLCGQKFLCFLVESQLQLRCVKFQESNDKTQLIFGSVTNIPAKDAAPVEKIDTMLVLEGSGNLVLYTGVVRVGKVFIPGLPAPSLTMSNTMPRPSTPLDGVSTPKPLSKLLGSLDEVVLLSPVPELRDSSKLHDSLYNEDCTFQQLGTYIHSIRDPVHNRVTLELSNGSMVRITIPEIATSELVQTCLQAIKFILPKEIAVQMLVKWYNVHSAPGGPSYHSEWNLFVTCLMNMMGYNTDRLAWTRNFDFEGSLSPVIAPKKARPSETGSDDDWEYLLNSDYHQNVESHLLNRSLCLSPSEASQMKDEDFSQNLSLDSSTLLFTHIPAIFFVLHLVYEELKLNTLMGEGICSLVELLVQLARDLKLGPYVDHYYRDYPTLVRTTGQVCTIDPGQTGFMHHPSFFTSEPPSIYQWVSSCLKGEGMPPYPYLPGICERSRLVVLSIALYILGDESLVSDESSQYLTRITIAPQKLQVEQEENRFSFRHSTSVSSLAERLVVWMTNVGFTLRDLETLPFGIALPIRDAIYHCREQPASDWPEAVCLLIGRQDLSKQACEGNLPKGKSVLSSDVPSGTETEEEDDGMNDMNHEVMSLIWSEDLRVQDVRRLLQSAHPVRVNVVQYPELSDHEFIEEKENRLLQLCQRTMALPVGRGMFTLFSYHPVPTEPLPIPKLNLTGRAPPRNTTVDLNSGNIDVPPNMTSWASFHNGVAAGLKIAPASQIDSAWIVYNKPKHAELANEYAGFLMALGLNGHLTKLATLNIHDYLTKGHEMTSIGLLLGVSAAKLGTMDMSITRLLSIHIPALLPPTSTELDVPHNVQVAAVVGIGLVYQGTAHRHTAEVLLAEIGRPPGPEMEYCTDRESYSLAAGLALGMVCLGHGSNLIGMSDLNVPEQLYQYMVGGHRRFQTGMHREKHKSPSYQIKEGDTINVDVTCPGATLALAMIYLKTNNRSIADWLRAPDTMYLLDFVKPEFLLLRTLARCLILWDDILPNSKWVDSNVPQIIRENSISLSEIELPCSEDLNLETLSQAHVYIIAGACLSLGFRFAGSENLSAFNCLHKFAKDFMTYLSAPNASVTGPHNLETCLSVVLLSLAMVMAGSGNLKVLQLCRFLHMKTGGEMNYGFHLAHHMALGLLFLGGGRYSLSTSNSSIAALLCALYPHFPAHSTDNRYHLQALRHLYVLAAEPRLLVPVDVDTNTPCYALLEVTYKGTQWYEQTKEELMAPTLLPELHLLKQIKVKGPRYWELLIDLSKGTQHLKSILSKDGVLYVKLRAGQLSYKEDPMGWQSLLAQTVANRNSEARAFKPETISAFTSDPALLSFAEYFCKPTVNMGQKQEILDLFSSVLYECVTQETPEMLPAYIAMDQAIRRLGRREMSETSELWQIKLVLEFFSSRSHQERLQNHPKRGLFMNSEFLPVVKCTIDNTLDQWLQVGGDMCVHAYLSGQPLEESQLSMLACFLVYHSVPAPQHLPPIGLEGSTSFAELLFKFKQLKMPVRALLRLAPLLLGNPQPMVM

With “recombinant Cdc20 (from UniProt Q12834 1-499) (natural protein)”, the percent of APC/C molecules with the additional Cdc20 mass amounted to 30%.
